Patent publication US20220412967A1, “METHOD FOR CAPTURING CANDIDATE SUBSTANCE THAT CAN BIND TO COMPLEX OF MR1 PROTEIN AND BETA2 MICROGLOBULIN PROTEIN, METHOD FOR PRODUCING CANDIDATE SUBSTANCE THAT CAN BIND TO COMPLEX OF MR1 PROTEIN AND BETA2 MICROGLOBULIN PROTEIN, AND METHOD FOR PRODUCING LIGAND CANDIDATE SUBSTANCE FOR MAIT CELL” (OSAKA UNIVERSITY, priority 2019, published 2022)

Assays:
[1] = molecular target: T1, complex of soluble mMR1A, soluble mβ2m and Ac6FP (Mus musculus, UniProt Q8HWB0); experiment: Thermodynamic stability of the complex (Tycho NT.6, F350/F330, 37 to 95° C.); assay type: physicochemical; conditions: for melting point (inflection point of curve) of the complex: FIG. 1B
T1 construct: made in house
T1 sequence (Q8HWB0 19-288, one chain of several): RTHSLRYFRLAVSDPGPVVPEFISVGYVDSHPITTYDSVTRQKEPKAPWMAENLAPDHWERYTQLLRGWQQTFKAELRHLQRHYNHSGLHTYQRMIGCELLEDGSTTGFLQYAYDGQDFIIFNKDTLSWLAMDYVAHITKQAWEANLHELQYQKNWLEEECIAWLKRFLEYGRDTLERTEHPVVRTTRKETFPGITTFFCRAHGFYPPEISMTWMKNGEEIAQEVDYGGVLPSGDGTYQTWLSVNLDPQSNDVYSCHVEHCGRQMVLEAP
Description: When a MR1 protein, a β2 protein, and Ac6FP form a complex to form a normal folding, tryptophan in the protein can be measured at an absorbance of 330 nm. On the other hand, when the complex is heat treated and the complex is denatured, tryptophan in the protein is exposed by the thermal denaturation, and the tryptophan can be measured at an absorbance of 350 nm.
After mixing the soluble mMR1A and the soluble mβ2m obtained in Example 1 (1), Ac6FP (Cat. No.: 11.418, manufactured by Schircks Laboratories Co., Ltd.) was further added to the obtained mixed solution to form the complex in a buffer solution (reaction system of complex). The composition of the buffer was as follows: 100 mmol/l Tris-HCl (pH 8.1), 2 mmol/l EDTA (pH 8.1), 400 mmol/l L-Arginine, and 5 mol/1 Urea, and the pH was set to 8.1. In the reaction system of 250 ml of complex, the concentration of the soluble mMR1A was 30 μg/ml (total amount: 7.5 mg), the concentration of the soluble mβ2m was 30 μg/ml (total amount: 7.5 mg), and the concentration of Ac6FP was 8 μg/ml (total amount: 2 mg). The reaction temperature of the reaction system of the complex was set at 4° C., and the reaction time was set at 9 hours.
Sodium cyanoborohydride (NaBH3CN) was added to the obtained complex (0.01 mg/ml), so as to have a predetermined concentration (0, 0.005, 0.05, 0.5, or 5 mmol/1) and subjected to the reduction treatment at 4° C. for 5 minutes. Note that the pH in the reaction solution of the reduction reaction was set to about 7.2.
8 to 10 μl of a sample containing the complex after the reduction treatment was collected in a capillary and set to Tycho™ NT.6. The temperature was then increased to 37 to 95° C., and the thermodynamic stability of the complex was calculated from the melting point (an inflection point of curve).
FIGS. 1A and 1B are graphs of the thermodynamic stability of the complex. In FIGS. 1A and 1B, the horizontal axis indicates the temperature, and the vertical axis indicates the ratio of the absorbance at 350 nm (F350) to the absorbance at 330 nm (F330) (F350/F330). […]

[2] = molecular target: T2, soluble murine MR1 protein isoform A (mouse, UniProt Q8HWB0 19-288); experiment: refolding of E. coli proteins with the small-molecule ligand Ac6FP; complex then purified by anion exchange and gel filtration chromatography
T2 construct: also called soluble mMR1A; mMR1
T2 sequence (Q8HWB0 19-288): as the sequence (Q8HWB0 19-288, one chain of several) above
Description: After the dialysis, the obtained sample was subjected to anion exchange chromatography under the purification condition 1 below to purify a crude purified product including the complex. After the start of the purification, the resultant was fractionated at 1 ml/fraction, and five fractions between 6 to 7 minutes from the start of purification were collected as fractions of the crude purified product.
Analytical instrument: AKTA pure25 (manufactured by GE Healthcare) Column: POROS™ HQ (manufactured by Applied Biosystems) [0108] […] 0 min: (A:B=100:0) [0111] 7.9 min: (A:B=50:50) Flow rate: 5 ml/min Fractionation volume: 1 ml/fraction
The obtained composition was then subjected to gel filtration chromatography under the purification condition 2 below to purify the complex from the crude purified product. After the start of the purification, the resultant was fractionated at 0.5 ml/fraction, and 4 fractions between 13 and 15 minutes from the start of purification were collected as a fraction containing the complex.

complex: complex formed from soluble mMR1A (SEQ ID NO: 10), soluble mβ2m (SEQ ID NO: 14) and the ligand Ac6FP
melting point (inflection point of curve) of the complex ([1]; control not subjected to the reduction treatment (0 mmol/l NaBH3CN)): 72.2 °C | melting point of the complex versus control not subjected to the reduction treatment ([1]; reduction treatment with NaBH3CN (0.005 to 5 mmol/l), FIG. 1A): increased | melting point (inflection point of curve) of the complex ([1]; treated with 5 mmol/l of sodium cyanoborohydride, 4° C., 5 minutes, pH about 7.2): 73.9 °C

B1: soluble mouse β2 microglobulin protein (other)
b2m: IQKTPQIQVYSRHPPENGKPNILNCYVTQFHPPHIEIQMLKNGKKIPKVEMSDMSFSKDWSFYILAHTEFTPTETDTYACRVKHASMAEPKTVYWDRDM
notes: Recombinant from Escherichia coli; also called soluble mβ2m
binding result [2]: binds
